{"source": "paper PMC3320567", "molecular_target": "STAT6 (pcDNA4-STAT6-mychis expression construct) (UniProt P42226)", "sequence (P42226 whole entry)": "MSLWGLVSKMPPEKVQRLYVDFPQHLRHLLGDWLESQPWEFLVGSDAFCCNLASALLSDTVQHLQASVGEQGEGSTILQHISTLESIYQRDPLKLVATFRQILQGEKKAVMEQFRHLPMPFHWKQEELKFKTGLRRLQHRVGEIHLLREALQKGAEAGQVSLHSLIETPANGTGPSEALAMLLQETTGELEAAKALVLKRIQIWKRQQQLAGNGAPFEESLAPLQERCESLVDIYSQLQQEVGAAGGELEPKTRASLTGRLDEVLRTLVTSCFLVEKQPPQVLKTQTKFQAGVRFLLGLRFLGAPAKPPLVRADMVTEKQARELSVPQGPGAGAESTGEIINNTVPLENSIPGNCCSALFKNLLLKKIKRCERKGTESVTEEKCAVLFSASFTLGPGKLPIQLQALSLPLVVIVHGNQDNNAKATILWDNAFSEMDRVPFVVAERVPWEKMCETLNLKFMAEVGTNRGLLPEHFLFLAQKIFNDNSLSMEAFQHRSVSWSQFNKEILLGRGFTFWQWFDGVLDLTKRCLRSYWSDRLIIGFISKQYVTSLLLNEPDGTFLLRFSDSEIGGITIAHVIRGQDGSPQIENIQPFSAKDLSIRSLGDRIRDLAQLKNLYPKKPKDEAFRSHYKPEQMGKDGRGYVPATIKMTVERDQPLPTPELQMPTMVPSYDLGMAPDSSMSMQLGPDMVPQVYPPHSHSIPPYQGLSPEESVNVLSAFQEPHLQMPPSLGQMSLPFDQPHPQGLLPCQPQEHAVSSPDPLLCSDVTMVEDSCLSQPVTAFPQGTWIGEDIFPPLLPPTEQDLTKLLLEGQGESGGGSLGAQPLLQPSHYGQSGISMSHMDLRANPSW", "data": [{"substance": "HA-Tip-YYFY (Y127F) (natural protein)", "values": [{"measurement": "STAT6-responsive luciferase reporter in 293T cells transfected with Lck and Tip variants, against wildtype Tip (fold reduction)", "value": 3}]}]}
